Experimental data published in US20180291096A1 (Janssen / Centocor, published 2018).
Where a chain is given by its changes, count along the chain named.

T1: recombinant human IL-23 (hrIL-23), produced at Centocor (human, UniProt P29460 23-328)
T1 construct: p19-p40 heterodimer; also called rhIL-23; huIL-23
T1 sequence 1: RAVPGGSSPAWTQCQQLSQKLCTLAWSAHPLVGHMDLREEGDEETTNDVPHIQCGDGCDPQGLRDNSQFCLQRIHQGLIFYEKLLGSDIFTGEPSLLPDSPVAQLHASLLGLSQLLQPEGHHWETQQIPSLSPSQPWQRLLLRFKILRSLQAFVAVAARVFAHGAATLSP
T1 sequence 2: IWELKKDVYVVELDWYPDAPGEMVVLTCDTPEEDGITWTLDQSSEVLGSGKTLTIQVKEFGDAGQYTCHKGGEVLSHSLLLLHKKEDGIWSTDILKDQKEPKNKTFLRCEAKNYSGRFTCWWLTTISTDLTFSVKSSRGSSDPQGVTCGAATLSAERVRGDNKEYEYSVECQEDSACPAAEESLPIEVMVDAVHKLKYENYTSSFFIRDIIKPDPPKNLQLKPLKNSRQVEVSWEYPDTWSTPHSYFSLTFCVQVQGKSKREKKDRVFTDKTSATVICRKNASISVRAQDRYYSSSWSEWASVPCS

B1: MOR05267 Fab (Fab, V domains shown)
VH: QVQLVQSGAEVKKPGSSVKVSCKASGGTFSNYAISWVRQAPGQGLEWMGGIIPMFGYANYAQKFQGRVTITADESTSTAYMELSSLRSEDTAVYYCARDIYAGMDVWGQGTLVTVSS
VL: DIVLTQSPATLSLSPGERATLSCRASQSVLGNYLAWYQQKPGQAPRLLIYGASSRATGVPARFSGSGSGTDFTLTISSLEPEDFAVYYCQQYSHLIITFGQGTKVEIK
notes: Fab
B2: MOR05269 Fab (Fab, V domains shown)
VH: B1 VH
VL: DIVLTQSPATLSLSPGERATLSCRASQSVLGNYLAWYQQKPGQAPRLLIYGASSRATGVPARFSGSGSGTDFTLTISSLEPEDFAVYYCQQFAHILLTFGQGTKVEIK
notes: Fab
B3: MOR05268 Fab (Fab, V domains shown)
VH: B1 VH
VL: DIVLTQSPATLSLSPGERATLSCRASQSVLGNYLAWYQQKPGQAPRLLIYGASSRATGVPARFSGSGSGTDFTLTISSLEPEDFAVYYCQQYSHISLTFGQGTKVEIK
notes: Fab
B4: MOR05041 Fab (Fab, V domains shown)
VH: QVQLVQSGAEVKKPGESLKISCKGSGYSFSNYWIGWVRQMPGKGLEWMGIISPTGSVTWYSPSFQGQVTISADKSISTAYLQWSSLKASDTAMYYCARWYYKPFDVWGQGTLVTVSS
VL: DIVLTQPPSVSGAPGQRVTISCTGSSSNIGSGYDVHWYQQLPGTAPKLLIYGNSKRPSGVPDRFSGSKSGTSASLAITGLQSEDEADYYCSSWTPSSVVFGGGTKLTVL
notes: Fab
B5: MOR05046 Fab (Fab, V domains shown)
VH: B4 VH with S52D, T54V, G55S, V57W, W59K
VL: B4 VL
notes: Fab
B6: MOR05043 Fab (Fab, V domains shown)
VH: B4 VH with I50F, T54D, V57H
VL: B4 VL
notes: Fab
B7: MOR05044 Fab (Fab, V domains shown)
VH: B4 VH with T54S, V57T
VL: B4 VL
notes: Fab
B8: MOR05034 Fab (Fab, V domains shown)
VH: QVQLVQSGAEVKKPGSSVKVSCKASGGTFSSNYISWVRQAPGQGLEWMGLIDPNFGGAYYAQKFQGRVTITADESTSTAYMELSSLRSEDTAVYYCARSKKGMYGGWTYPLMMFDLWGQGTLVTVSS
VL: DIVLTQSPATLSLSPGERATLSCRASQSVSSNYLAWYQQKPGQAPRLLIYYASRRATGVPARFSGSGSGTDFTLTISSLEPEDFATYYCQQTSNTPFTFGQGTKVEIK
notes: Fab
B9: MOR05036 Fab (Fab, V domains shown)
VH: B8 VH with N54V
VL: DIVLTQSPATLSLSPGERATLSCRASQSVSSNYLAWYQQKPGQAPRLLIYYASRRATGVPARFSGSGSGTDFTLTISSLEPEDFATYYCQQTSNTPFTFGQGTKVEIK
notes: Fab
B10: MOR05061 mAb (antibody, human IgG1, V domains shown)
VH: QVELVESGGGLVQPGGSLRLSCAASGFTFSSFGMSWVRQAPGKGLEWVSNISSSGSSTYYADSVKGRFTISRDNSKNTLYLQMNSLRAEDTAVYYCARYWGTPYLMQFDNWGQGTLVTVSS
VL: DIALTQPASVSGSPGQSITISCTGTSSDVGGYNSVSWYQQHPGKAPKLMIYSVSSRPSGVSNRFSGSKSGNTASLTISGLQAEDEADYYCSSYYFYLQRIVFGGGTKLTVL
B11: MOR04658 mAb (antibody, human IgG1, V domains shown)
VH: B10 VH
VL: B10 VL with Y94D, F95T, Y96N, L97K, Q98P, R99L, I100V
B12: MOR05037 mAb (antibody, human IgG1, V domains shown)
VH: B8 VH with Q3E, N54M
VL: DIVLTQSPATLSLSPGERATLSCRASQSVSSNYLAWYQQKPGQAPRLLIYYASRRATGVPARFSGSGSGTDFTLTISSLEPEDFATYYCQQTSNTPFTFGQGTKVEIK
B13: MOR05033 mAb (antibody, human IgG1, V domains shown)
VH: B8 VH with Q3E, L50I, D52I, N54P, F55I, G57N, Y59W
VL: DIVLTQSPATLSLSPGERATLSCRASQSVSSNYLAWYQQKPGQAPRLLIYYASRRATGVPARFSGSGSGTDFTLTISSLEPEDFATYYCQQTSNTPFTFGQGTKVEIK

Molecular target: T1, recombinant human IL-23 (hrIL-23), …
Assay: SET

| Binder | Kd |
| --- | --- |
| B1 | 2 nM |
| B2 | 0.96 nM |
| B3 | 0.66 nM |
| B4 | 0.041 nM |
| B5 | 0.023 nM |
| B6 | 0.018 nM |
| B7 | 0.043 nM |
| B8 | 0.126 nM |
| B9 | 0.032 nM |

Molecular target: T1, recombinant human IL-23 (hrIL-23), …
Assay: cell-based or functional assay

| Binder | IC50, inhibition of IL-17 production |
| --- | --- |
| B10 | 0.309 mg/L |
| B11 | 1.96 mg/L |
| B12 | 0.336 mg/L |
| B13 | 0.283 mg/L |

Molecular target: T1, recombinant human IL-23 (hrIL-23), …
Assay: IL-23/IL-23R competition assay

| Binder | IC50 |
| --- | --- |
| B1 | 0.14 nM |
| B2 | 0.2 nM |
| B3 | 0.15 nM |
| B4 | 0.07 nM |
| B5 | 0.08 nM |
| B6 | 0.05 nM |
| B7 | 0.05 nM |
| B8 | 0.4 nM |
| B9 | 0.32 nM |
